Source: the supplement of paper PMC12764529
± gives the half width of the 95% confidence interval.

Columns and labels:
[1] = folding stability dG unfold from chymotrypsin proteolysis; higher = more stable
Method in brief: (§1)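 Digests were run with trypsin and chymotrypsin at 11 concentrations in threefold dilutions, plus a no-protease condition, on designed mini-proteins in a PA-tagged cDNA display construct. The mini-proteins were under 80 residues, had no cysteine, and were kept only when AlphaFold2 dimer inter-PAE was above 15. After sequencing, Bayesian fitting of the counts gave K50, from which unfolding free energy was derived against a sequence-predicted unfolded-state K50 and a shared folded-state K50, per protease or combined.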

[2] = folding stability dG unfold (combined trypsin and chymotrypsin); higher = more stable
Method in brief: as §1

[3] = folding stability dG unfold from trypsin proteolysis; higher = more stable
Method in brief: as §1

Row | Sequence | folding stability dG unfold [1] | folding stability dG unfold [2] | folding stability dG unfold [3]
1 | SAGGSAFPIRIKDDNQKKIMIPFDSPEELEDLLKEPGIDKVDPEPNPDGNQPWFTIDLPNGKIELWSAGGSA [r15_632_TrROS] | -1.04 ± 0.66 kcal/mol | -0.826 ± 0.38 kcal/mol | -1.53 ± 0.5 kcal/mol
2 | SAGGSAGGSAPMKIDEITDVYPNPNRPKIIIKWRGPNGQPMVFDPENGKWMTPEEALDALKSAGGSAGGSAG [r3_206_TrROS] | 1.12 ± 0.062 kcal/mol | 0.935 ± 0.046 kcal/mol | 0.571 ± 0.059 kcal/mol
3 | SAGGSAGGSAGGLKPGEKLVFKTETKTLKLKAKVFNKDTGEEFEVEVELTVTRIEVYPLSAGGSAGGSAGGS [r10_1116_TrROS_Hall] | 4.96 ± 0.22 kcal/mol | 4.79 ± 0.33 kcal/mol | 3.04 ± 0.31 kcal/mol
4 | SAGGSASSSEKIRITYLKDGVEYEVTFPLVELVTDPNTGVTTVTLPPEFKELFPGPITVTEVEIPPSAGGSA [r15_710_JUSTAS] | 2.267 ± 0.019 kcal/mol | 1.99 ± 0.032 kcal/mol | 1.42 ± 0.035 kcal/mol
5 | SAGGSAGGSAMKVTVEEEELEVEPGETVKIKIRLPNGEEREFSLEDLKKLPPGEAEVEIERVSAGGSAGGSA [r18_394_TrROS_Hall] | 0.729 ± 0.13 kcal/mol | 0.785 ± 0.18 kcal/mol | 0.583 ± 0.076 kcal/mol
6 | SAGGGWPWVVKFEPPDGKEMEFVIPFNPKKNWYWIKMPGNGKTVPVPLDDLEEQPGFQIDEIEPLDDLSAGG [r13_994_TrROS] | 1.31 ± 0.48 kcal/mol | 1 ± 0.27 kcal/mol | -0.0768 ± 0.33 kcal/mol
7 | SAGGSAGGMLSPEEAEAIARALEAAGRPVTELVVTEHPEGTATVTLTVRYPDGSTETLPLSLPASAGGSAGG [r6_762_JUSTAS] | 0.782 ± 0.1 kcal/mol | 1.05 ± 0.2 kcal/mol | 1.27 ± 0.035 kcal/mol
8 | SAGGSAGGSAGSMSTPRSSEKMEKDGGGETLVRTLTYPEPSLTRTVRTPPDGSSSSSTSAPSAGGSAGGSAG [r3_28_JUSTAS] | 0.54 ± 0.11 kcal/mol | 0.235 ± 0.2 kcal/mol | -0.452 ± 0.37 kcal/mol
9 | SAGGSAGGMEIRVERDPESDLLVAELKIDGHDAIAVFDPNRPGHIEIGTTNEIPIEEIIDALLSSAGGSAGG [r6_195_TrMRF] | -0.08 ± 0.32 kcal/mol | 0.152 ± 0.37 kcal/mol | 0.683 ± 0.038 kcal/mol
10 | SAGGSAMERVTITLPDGRELTIERFPEEPNRFVLTFPDGRRLEFEFESPEEGLRAALELVLAGKEGSAGGSA [r15_38_TrMRF] | 4.13 ± 0.042 kcal/mol | 3.91 ± 0.06 kcal/mol | 3.34 ± 0.075 kcal/mol
11 | SAGMEVKITVEREEDGTLRITITVRPDMTPEELAALLEEELGLEVRVVRDEETGERVLEIEIPLPEELESAG [r5_742_TrROS_Hall] | 2.16 ± 0.072 kcal/mol | 2.39 ± 0.11 kcal/mol | 2.64 ± 0.12 kcal/mol
12 | SAGGSDKVVEIPIDIPNGYTVTIRMHPDDGTARVEVSPNMPPNRVLEKIKKIFDDNGYRILPIEIVSAGGSA [r2_497_TrROS] | 0.796 ± 0.053 kcal/mol | 1.01 ± 0.077 kcal/mol | 1.2 ± 0.03 kcal/mol
13 | SAGGSAGGTAEELARKLEEALREAGYEVEKIEVVRVERKGDKVTIEVRVTLPDGRKLELRIELDSAGGSAGG [r6_839_TrROS_Hall] | 3.22 ± 0.13 kcal/mol | 3.67 ± 0.21 kcal/mol | 4.09 ± 0.3 kcal/mol
14 | SAGMPPVKVEIEVYPVRVEGELLYIAKIVRPDGSVLVIAFKPEELIEAIKKEFPDIEEIKFSPFETPPESAG [r5_25_TrMRF] | 3.579 ± 0.022 kcal/mol | 3.48 ± 0.054 kcal/mol | 3.3 ± 0.095 kcal/mol
15 | SAGGSAGGSASSTLRTVRFPPDTPLEEVKEALAAEFPDRDPNIKILEVRPEDGGLVVTVEVVSAGGSAGGSA [r18_360_JUSTAS] | 1.58 ± 0.031 kcal/mol | 1.62 ± 0.057 kcal/mol | 1.51 ± 0.033 kcal/mol
16 | SASLGISKIETSSLPNGTTVVTVTFSKPNLKVTLTKNPDGTITITLSPEVKKLPEEVKKLVEELAAKLSSAG [r14_555_JUSTAS] | 3.97 ± 0.048 kcal/mol | 3.95 ± 0.095 kcal/mol | 3.97 ± 0.1 kcal/mol
17 | SAGGSAGGSAGVLSLEGVVSTEEFEDPSSSNKTLVITLPGGERVVVNLPSSPSSVVTRLVSAGGSAGGSAGG [r17_182_JUSTAS] | 0.467 ± 0.066 kcal/mol | 0.422 ± 0.074 kcal/mol | 0.215 ± 0.028 kcal/mol
18 | SAGGSAGGSMPGETVTLNVKTTVEVTTTLSSPSGSPFPVSVTREVTIPITVSSEELKKGLITLESAGGSAGG [r6_138_JUSTAS] | 0.291 ± 0.15 kcal/mol | 0.229 ± 0.13 kcal/mol | -0.473 ± 0.2 kcal/mol
19 | SAGGSAGGSAGGSSITIEEEGGKLRITVTNENGEKSEFEFPPGAKITLPEGVKLELEKESAGGSAGGSAGGS [r4_447_TrROS_Hall] | 1.13 ± 0.019 kcal/mol | 0.84 ± 0.073 kcal/mol | 0.549 ± 0.082 kcal/mol
20 | SAGMTVTLPGDKSYTVTVKYTLYDADGKKLGEKTYTKTVTVAPNSTVTINIPNTYPNTVVTEVTVTPESAGG [r19_295_JUSTAS] | 4.38 ± 0.092 kcal/mol | 4.32 ± 0.13 kcal/mol | 3.91 ± 0.35 kcal/mol
21 | SAMVLDVSELTKKAIEELKKKNPKPLSPEEIVELGKKVAAEVAEKLGIPLKEIKVEPTGKHPKAVAELPSAG [r14_147_TrMRF] | 0.839 ± 0.059 kcal/mol | 0.391 ± 0.52 kcal/mol | 0.527 ± 0.096 kcal/mol

Row | Sequence | folding stability dG unfold [1] | folding stability dG unfold [2] | folding stability dG unfold [3]
22 | SAGKKKEEEKKKKEEKKKKEYYLVKVKIKNPNGEEKEIVLKAKSLEEAKKALEKLGLKVEIVEIKPIKVSAG [r5_233_TrROS_Hall] | 3.03 ± 0.11 kcal/mol | 2.71 ± 0.17 kcal/mol | 1.7 ± 0.11 kcal/mol
23 | SAGGSAGGSASAEIVPLTLTFPVKFKKDPNGKTKEKTVEVKIELYVIRDPNGNLYTIAKISLSAGGSAGGSA [r18_284_TrMRF] | 4.24 ± 0.089 kcal/mol | 3.98 ± 0.15 kcal/mol | 3.01 ± 0.14 kcal/mol
24 | SAGGSAGKITIPARVKITLTPPNGPTVTFDAIITRVEDNSIELILGNVPITIPPNAKNVTITSVEGSAGGSA [r15_510_TrMRF] | 1.53 ± 0.022 kcal/mol | 1.49 ± 0.052 kcal/mol | 1.45 ± 0.018 kcal/mol
25 | SAGGSAGGSEPVTVMFWFDSPEEIDELIDELKGAGIKKVEMEPFPGRYWLTITVDGAEIHIMFSAGGSAGGS [r12_846_TrROS] | 3.786 ± 0.031 kcal/mol | 3.29 ± 0.14 kcal/mol | 2.45 ± 0.067 kcal/mol
26 | SAGGSVKIKIKVPKDNPEAKKLAEKLRKLPGVKEVKVKKVKEINGYLVLEIEVEVSPEVKEKLKELLSAGGS [r16_394_TrROS_Hall] | 2.75 ± 0.18 kcal/mol | 2.97 ± 0.34 kcal/mol | 2.71 ± 0.25 kcal/mol
27 | SAGGSAGGSAGVTVSLPDGRVVTEVTTLPDGTVVITYTKDGKKYTTTLNGSAPAPTPTLASAGGSAGGSAGG [r17_421_JUSTAS] | 2.58 ± 0.035 kcal/mol | 2.52 ± 0.086 kcal/mol | 2.42 ± 0.083 kcal/mol
28 | SAGGSAGGSAGGPEVNIEVERYRLPNGGYLLVIRTSDGEEIVIEFDSPEEALKAAKEIAKSAGGSAGGSAGG [r11_955_TrMRF] | 2.04 ± 0.056 kcal/mol | 1.93 ± 0.077 kcal/mol | 1.73 ± 0.035 kcal/mol
29 | SAGGSAGGSAGNWIIRIRWPGKSIMFVLPEGMNVDEIATNIQDEFNYPIDIEVIPPGQPISAGGSAGGSAGG [r11_805_TrROS] | 2.65 ± 0.062 kcal/mol | 2.5 ± 0.15 kcal/mol | 2.15 ± 0.071 kcal/mol
30 | SAGGSAGGSAGKLEVVELEDGYLVVYDPETGLIVLYTPEEVVAELLDAFDPDKPVVVVEFSAGGSAGGSAGG [r11_374_TrMRF] | 0.689 ± 0.064 kcal/mol | 1.17 ± 0.11 kcal/mol | 1.46 ± 0.091 kcal/mol
31 | SAGGSAGGSAGMEPVYLLVKRTNPATGGREEALLAVPAEDLDAVREALEALPGVEEIEEISAGGSAGGSAGG [r17_438_TrMRF] | 1.18 ± 0.079 kcal/mol | 0.886 ± 0.079 kcal/mol | 0.283 ± 0.05 kcal/mol
32 | SKEKYKKPIKFTVKIEEGPVTENGEKYIKIEITYPGGYTATIIITPKKIEIKSNVPNPEKVKELVKKLVKSA [r9_662_TrMRF] | 2.81 ± 0.14 kcal/mol | 2.5 ± 0.28 kcal/mol | 1.62 ± 0.15 kcal/mol
33 | SATITVHNPWNGQPIEIRIDPGMTPEEIKKKIEKVPGIPPGTRDAVEKAIEYFEAYRQNPEQRKKLKKESAG [r14_732_TrROS] | 0.934 ± 0.096 kcal/mol | 0.675 ± 0.13 kcal/mol | 0.241 ± 0.093 kcal/mol
34 | SAGGSAMYEVRIKIKKDGKEVEIELSLEELEELLESPELREELEIVEIEVRPLPPEELSEEELKALSAGGSA [r15_460_TrROS_Hall] | 0.836 ± 0.045 kcal/mol | 1.06 ± 0.058 kcal/mol | 1.18 ± 0.028 kcal/mol
35 | SASMIIDPVSSEEEIEKLVKEAIEAGIGGEGLIVLRSDGKVYRITIEPGTGKVKKEEVMSPEELAAKLGSAG [r14_913_JUSTAS] | 2.11 ± 0.051 kcal/mol | 2.12 ± 0.16 kcal/mol | 1.75 ± 0.053 kcal/mol
36 | SAGGSAGGMSITINLPNGVTLTITTGDNDVYPITITYPGGETKTLTVTEPLSSISQVISNIVNSSAGGSAGG [r6_27_JUSTAS] | 3.28 ± 0.035 kcal/mol | 3.33 ± 0.042 kcal/mol | 3.38 ± 0.069 kcal/mol
37 | SAGGSAGGSRIVRNPDGWYYVRIESPEKGQERYIWIPKGNAEEIADPFGIRNVSIYRPDEPIPSAGGSAGGS [r12_294_TrROS] | 1.28 ± 0.34 kcal/mol | 0.937 ± 0.19 kcal/mol | 0.427 ± 0.15 kcal/mol
38 | SAGGSAGGSAGGEDPNLKSKTITKKVEKGKLDSSKNITDSSGNTSIITVENNTITITIVSSAGGSAGGSAGG [r7_97_JUSTAS] | 1.66 ± 0.049 kcal/mol | 1.03 ± 0.2 kcal/mol | -0.215 ± 0.31 kcal/mol
39 | SAGGSAGGSMIGTADGTPVPFEVTHAEVYEVTLPNGEKYYLIKAYDPSTGKYFVALIPAKDIASAGGSAGGS [r12_823_TrMRF] | 2.84 ± 0.052 kcal/mol | 2.8 ± 0.1 kcal/mol | 2.77 ± 0.11 kcal/mol
40 | SAGGPVKLVKVQFINPETGEPVEISGPASKVLEIAEKLGLNVTSVTVIENPNTILVVVPGPNQLVVVTDSAG [r5_521_TrMRF] | 1.45 ± 0.018 kcal/mol | 1.69 ± 0.11 kcal/mol | 1.82 ± 0.055 kcal/mol
41 | SAGGSAMPKKVVEGPVPPEDVEARIAELLEEDPNLTYVKFTYPELGSEVVIDFENGKVTKIERLLESAGGSA [r15_166_JUSTAS] | 0.211 ± 0.1 kcal/mol | 0.108 ± 0.052 kcal/mol | -0.217 ± 0.1 kcal/mol
42 | SAGGPPVTIMIRLPPLQEQLPPEWLEKLKNIRVPNGHPIKDIDVQPHNGRWVIMIKVDSPEQARDIIRSAGG [r13_269_TrROS] | 1.89 ± 0.053 kcal/mol | 1.75 ± 0.13 kcal/mol | 1.66 ± 0.048 kcal/mol
